{
  "source": "paper PMC3035719",
  "key": {"MBP-DGKδSAM-V52E": {"target": "MBP-DGKδSAM-V52E (UniProt Q16760)", "test": "SPR"}, "MBP-DGKδSAM-H38A/V52E": {"target": "MBP-DGKδSAM-H38A/V52E", "test": "SPR"}},
  "data": [
    {"substance": "MBP-DGKδSAM-E35G (domain or fragment)", "values": [
      {"measurement": "Kd", "setting": "MBP-DGKδSAM-V52E", "value": 12.2, "unit": "µM"},
      {"measurement": "Kd", "setting": "MBP-DGKδSAM-H38A/V52E", "value": 23, "unit": "µM"}
    ]}
  ]
}
